The labels stand for the following.
B1: LYV370 (20A12-IgG4) (antibody, V domains shown)
VH: QIQLVQSGPELKKPGETVKISCKASGYTFTTYGMSWVKQAPGKGLKWMGWINTYSGVPTYADDFKGRFAFSLETSASTAYLQINNLKNEDMAIYFCARGYGSPDYWGQGTTLTVSS
VL: QIVLTQSPAIMSASPGEKVTMTCSASSSVSYMNWYQQKSGTSPKRWIFDTSKLASGVPARFSGSGSGTSYSLTISSMEAEDAATYYCQQWSGNPPISTFGSGTKLEIKR
notes: Chimeric antibody: hybridoma variable domains on human IgG4 constant region with hinge S228P (EU numbering) and human kappa constant region; S228P is already in the full chain entry; also called 20A12 in human IgG4SP / human kappa
B2: LYV390 (30C11-IgG4) (antibody, V domains shown)
VH: QIQLVQSGPELKKPGESVKISCKASGYTFTDYAMHWVKQAPGKALKWMGLINTYTGKPTYVDDLKGRFVFSLEASASTAKLQISNLKNEDTAIYFCARYYHDGTYYGWFANWGQGTLVTVSS
VL: DTVLTQSPALAVSPGERVTVSCGATESVSTALNWYQQKPGQQPRLLIYGASNLESGVPARFSGSGSGTDFTLSIDPVEADDTATYFCQQTWNDPLTFGSGTKLEIKR
notes: Chimeric antibody, human IgG4 S228P / human kappa; also called 30C11 in hG4SP / human kappa
B3: LYV371 (11E10-IgG4) (antibody, V domains shown)
VH: QVQLQQSGAELVRPGASVTLSCKASGYTFAGFEMHWIKQTPVHGLGWIGAIDPKTGGTDYNQKFKDKALLTADKSSNTAYMELRSLTSEDSAVYYCTRDLGYFDVWGTGTTVTVSS
VL: DIQMTQTTSSLSASLGDRVTISCRASQDIRSNLNWYQQKPDGTVKLLIYYTSRLHSGVPSRFSGSGSGTDYSLTISNLEQEDIATYFCQQSEKLPRTFGGGTKLEIRR
notes: Chimeric antibody, human IgG4 S228P / human kappa; also called 11E10 in human IgG4SP / human Kappa
B4: LYV402 (26B3-IgG4) (antibody, V domains shown)
VH: EVKLLESGGGLVQPGGSLKLSCAASGFDFSRYWMSWVRQAPGKGLEWIGEINPDSNPINYTPSLKDKFIISRDNAKNTLYLQMSKVRSEDTALYYCARDGSSSRYFDVWGAGTTVTVSS
VL: DIVMTQSPATLSVTPGDRVSLSCRASQSISDYLHWYQQKSHESPRLLIKYVSQSISGIPSRFSGSGSGSDFTLSINSVEPEDVGVYYCQNGHSFPPTFGGGTKLEIKR
notes: Chimeric antibody, human IgG4 S228P / human kappa; also called 26B3b in hG4SP / human kappa
B5: LYV372 (23D2-IgG4) (antibody, V domains shown)
VH: QVQLQQSGAELVRPGSSVKISCKASGYAFSIYWMNWVKQRPGQGLEWIGQIYPGDGYTNYNGKFKGKATLTADKSSSTAYMQLSSLTSEDSAVYFCARGQLGLDGYWGQGTTLTVSS
VL: QIVLTQSPTIMSASPGEKVTMTCSASSSVSYIYWYQQKPGSSPRLLIYDTSNLASGVPVRFSGSGSGTSYSLTISRMEAEDAATYYCQQWNIYPYTFGGGTKLEIKR
notes: Chimeric antibody, human IgG4 S228P / human kappa; also called 23D2 in human IgG4S; 23D2b in human Kappa
B6: LYV375 (22F2-IgG4) (antibody, V domains shown)
VH: B5 VH with Q1E, Q3K, Q5V, Q6E, I31L
VL: B5 VL with T9A
notes: Chimeric antibody, human IgG4 S228P / human kappa; also called 22F2 in human IgG4SP / human Kappa

Residue numbers refer to the chain shown, from its start. Names may count otherwise.

The results in this text go back to patent publication US20200385479A1 (LYVGEN BIOPHARMA, published 2020).

Usually Kd stands for the equilibrium constant for the complex coming apart. What is called koff is the rate constant with which the complex falls apart. Low values mean slow dissociation, high ones fast dissociation. A word on the kon: it is the second-order rate constant of association. Low readings indicate slower complex formation, high ones faster complex formation. By EC50 (read off the curve) is commonly meant the midpoint of the concentration-response curve. A lower EC50 (read off the curve) goes with a more potent agent.

T2 sequence (chain, as listed by the source limits assumed): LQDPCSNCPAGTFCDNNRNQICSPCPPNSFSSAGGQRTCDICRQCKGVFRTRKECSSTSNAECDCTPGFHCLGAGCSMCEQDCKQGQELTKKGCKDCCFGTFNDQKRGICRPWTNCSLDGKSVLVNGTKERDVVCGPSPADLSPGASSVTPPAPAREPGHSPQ

One assay addresses T1, CD137 antigen (Octet antigen binding assay) (UniProt Q07011 24-186, limits assumed).
T1 construct: also called 4-1BB; TNFRSF9
In words: BLI, Octet Red 96, antibody on anti-human Fc (AHC) biosensors, 1:1 model. The protocol:
The chimeric antibodies were tested in an antigen binding assay on Octet Red 96 to estimate binding kinetics. Antibodies were loaded onto anti-human Fc (AHC) biosensors. Loaded sensors were dipped into a serial dilution of each […] (300 nM, 1:3 down, 7 points) in assay buffer (PBS with 0.1% BSA, 0.02% Tween-20 (pH 7.2)).
A general note: BLI is a label-free optical method that tracks binding on a fibre tip over time.
B1 came in with a Kd of 5.7 nM, a dissociation rate constant (koff) of 0.001 s⁻¹ and a kon of 180000 M⁻¹ s⁻¹.

For B2, the affinity, expressed as Kd, was 5.3 nM; the koff amounted to 0.0014 s⁻¹; the kon amounted to 260000 M⁻¹ s⁻¹.

Take B3: the affinity, expressed as Kd, was 3.8 nM; the koff was determined as 0.0011 s⁻¹; the kon was 280000 M⁻¹ s⁻¹.

Regarding B4, binding was put at a Kd of 2.1 nM, the koff turned out to be 0.00034 s⁻¹ and the kon was 160000 M⁻¹ s⁻¹.

B5: the dissociation constant (Kd) is 5.8 nM, the koff was found to be 0.0016 s⁻¹ and the kon is 280000 M⁻¹ s⁻¹.

The molecule B6 came in with a Kd of 8.2 nM, a koff of 0.0023 s⁻¹ and a kon of 280000 M⁻¹ s⁻¹.

The next assay concerns the target T2, human CD137-His tag protein.
T2 construct: It differs from the cell-surface CD137 and the Octet antigen; also called Sino Biological Inc. Cat #10377-H08H-100; not shown: C-terminal His tag of the vendor's product (Sino Biological Cat #10377-H08H-100)
In words: ELISA, plate coated with human CD137-His at 1 ug/ml, anti-human IgG-HRP, A450. The protocol:
CD137 protein (human CD137-His tag protein (Sino Biological Inc. Cat #10377-H08H-100) or rhesus monkey CD137-His (Sino Biological Inc. Cat #90305-K08H-100)) was diluted in PBS to 1 ug/ml and used to coat an ELISA plate (Corning, Cat #9018, high binding) at a concentration of 50 ul/well. The plate was incubated overnight at 4° C. The plate was then decanted and washed with PBS-T, and 200 ul/well assay diluent (1×PBS/1% BSA/0.05% Tween-20/0.05% proclin 300) was added. After a 3 hour incubation at room temperature, the plate was washed with PBS-T three times. The testing antibodies were diluted in assay diluent to 0, 0.000003, 0.00003, 0.0003, 0.003, 0.03, and 0.3 ug/ml or approximately 0, 0.00002, 0.0002, 0.002, 0.02, 0.2 and 2 nM and then added to the plate (50 ul/well). The plate was incubated for one hour at 37° C. and then washed three times with PBS-T. Anti-human IgG-HRP conjugate (Bethyl Cat #A80-319P) at a 1:10,000 dilution was added to the plate (100 ul/well). The plate was incubated for 0.5 hour at 37° C., followed by washing with PBS-T three times. The TMB substrate solution was added (100 ul/well). The color was allowed to develop for 8 minutes before it was stopped with 100 ul/well 2N H₂SO₄. Absorbance at 450 nm was determined with an ELISA reader.
Take B1: the binding result is “binds”.

For B2, the “EC50 (read off the curve)” value was roughly 0.04 nM.

Consider B4, for which the “EC50 (read off the curve)” value was roughly 0.005 nM.

As to B6, the “EC50 (read off the curve)” value lay within 0.01 to 0.02 nM.
